Reference: doi:10.1101/2024.05.08.593122 (bioRxiv, 2024)

How the values were obtained:
[1] = biological target: the molecule itself; assay: non-reducing SDS-PAGE with immunodecoration
[2] = biological target: T1, N-terminally FLAG tagged Tgl2 (S. cerevisiae, UniProt P54857 1-326); assay: native gel or EMSA
T1 sequence (looked up): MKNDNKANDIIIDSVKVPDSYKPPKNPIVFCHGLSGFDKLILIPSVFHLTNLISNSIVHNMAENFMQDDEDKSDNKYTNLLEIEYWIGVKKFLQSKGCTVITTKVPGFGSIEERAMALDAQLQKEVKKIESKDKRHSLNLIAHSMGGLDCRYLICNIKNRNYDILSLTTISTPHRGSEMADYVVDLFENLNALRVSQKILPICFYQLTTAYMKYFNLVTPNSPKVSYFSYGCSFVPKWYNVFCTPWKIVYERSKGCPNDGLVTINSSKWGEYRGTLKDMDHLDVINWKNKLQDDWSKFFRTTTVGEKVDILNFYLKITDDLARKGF

stoichiometry N [2]: ≥ 2
B1: N-terminally HA tagged Tgl2 (natural protein, S. cerevisiae, UniProt P54857 1-326, looked up)
chain: MKNDNKANDIIIDSVKVPDSYKPPKNPIVFCHGLSGFDKLILIPSVFHLTNLISNSIVHNMAENFMQDDEDKSDNKYTNLLEIEYWIGVKKFLQSKGCTVITTKVPGFGSIEERAMALDAQLQKEVKKIESKDKRHSLNLIAHSMGGLDCRYLICNIKNRNYDILSLTTISTPHRGSEMADYVVDLFENLNALRVSQKILPICFYQLTTAYMKYFNLVTPNSPKVSYFSYGCSFVPKWYNVFCTPWKIVYERSKGCPNDGLVTINSSKWGEYRGTLKDMDHLDVINWKNKLQDDWSKFFRTTTVGEKVDILNFYLKITDDLARKGF
stoichiometry N [1]: 2
